Assay results: paper PMC6745501, “Plant photoreceptors and their signaling components compete for COP1 binding via VP peptide motifs” (The EMBO Journal, 2019)
“And” between values parts separate entries of the source, which are not always exact repeats. Identical values can stand only once.

How the values were obtained:
COP1 WD40 domain [1] = test: Analytical size-exclusion chromatography binding assay; parameters: species or system Arabidopsis; details: Superdex 200 Increase 10/300 GL, ~4 μM per protein, 150 mM NaCl, 20 mM HEPES 7.4, 2 mM BME, protein pre-monomerized by UV-B
Protocol: 500 μl of the respective protein solution or a mixture (~ 4 μM per protein) was loaded sequentially onto the column, and elution at 0.75 ml/min was monitored by UV absorbance at 280 nm.

COP1 WD40 domain [2] = test: Grating-coupled interferometry (GCI) binding kinetics versus the COP1 WD40 domain; parameters: species or system Arabidopsis; details: for Kd: ligand COP1 (2,000 pg/mm^2), analyte pre-monomerized by UV-B, highest concentration 2 μM, 150 mM NaCl, 20 mM HEPES 7.4, 2 mM BME, 25°C, 1:1 binding model, read-out: Kd (dissociation constant), + UV-B
Protocol: For CRY2 activation, proteins were diluted to their final assay concentrations (as indicated in the figure legends) in Eppendorf tubes and exposed to 10 min of fluorescent light on ice.
The Creoptix WAVE system (Creoptix AG), a label‐free surface biosensor, was used to perform GCI experiments. All experiments were performed on 2PCH or 4PCH WAVEchips (quasi‐planar polycarboxylate surface; Creoptix AG). After a borate buffer conditioning (100 mM sodium borate pH 9.0, 1 M NaCl; Xantec), COP1 (ligand) was immobilized on the chip surface using standard amine‐coupling: 7 min activation [1:1 mix of 400 mM N‐(3‐dimethylaminopropyl)‐N′‐ethylcarbodiimide hydrochloride and 100 mM N‐hydroxysuccinimide (both Xantec)], injection of COP1 (10 μg/ml) in 10 mM sodium acetate pH 5.0 (Sigma) until the desired density was reached, and final quenching with 1 M ethanolamine pH 8.0 for 7 min (Xantec). […] Blank injections were used for double referencing and a dimethyl sulfoxide (DMSO) calibration curve for bulk correction. Analysis and correction of the obtained data were performed using the Creoptix WAVEcontrol software (applied corrections: X and Y offset; DMSO calibration; double referencing), and a one‐to‐one binding model or a heterogenous ligand model with bulk correction was used to fit all experiments.

Molecule	Interaction with the COP1 WD40 domain in size-exclusion chromatography, UV-B-activated (COP1 WD40 domain [1])	Kd (COP1 WD40 domain [2])	Binding to the COP1 WD40 domain in the absence of supplemental fluorescent light (COP1 WD40 domain [2]; ligand COP1 (2000 pg/mm2), analyte + no additional light, highest concentration 14 μM)
UVR8^12–381: UVR8 β-propeller core, residues 12–381 (protein, UniProt Q9FN03 12-381, looked up, fragment) APPRKVLIISAGASHSVALLSGDIVCSWGRGEDGQLGHGDAEDRPSPTQLSALDGHQIVSVTCGADHTVAYSQSGMEVYSWGWGDFGRLGHGNSSDLFTPLPIKALHGIRIKQIACGDSHCLAVTMEGEVQSWGRNQNGQLGLGDTEDSLVPQKIQAFEGIRIKMVAAGAEHTAAVTEDGDLYGWGWGRYGNLGLGDRTDRLVPERVTSTGGEKMSMVACGWRHTISVSYSGALYTYGWSKYGQLGHGDLEDHLIPHKLEALSNSFISQISGGWRHTMALTSDGKLYGWGWNKFGQVGVGNNLDQCSPVQVRFPDDQKVVQVSCGWRHTLAVTERNNVFAWGRGTNGQLGIGESVDRNFPKIIEALSVDG	interacts	~500 nM and 583 nM	
UVR8^12–415: UVR8 core with C-terminus extended to include the VP peptide motif, residues 12–415 (protein, left off: His10, N-terminal, cleaved | Twin-Strep, N-terminal, cleaved) APPRKVLIISAGASHSVALLSGDIVCSWGRGEDGQLGHGDAEDRPSPTQLSALDGHQIVSVTCGADHTVAYSQSGMEVYSWGWGDFGRLGHGNSSDLFTPLPIKALHGIRIKQIACGDSHCLAVTMEGEVQSWGRNQNGQLGLGDTEDSLVPQKIQAFEGIRIKMVAAGAEHTAAVTEDGDLYGWGWGRYGNLGLGDRTDRLVPERVTSTGGEKMSMVACGWRHTISVSYSGALYTYGWSKYGQLGHGDLEDHLIPHKLEALSNSFISQISGGWRHTMALTSDGKLYGWGWNKFGQVGVGNNLDQCSPVQVRFPDDQKVVQVSCGWRHTLAVTERNNVFAWGRGTNGQLGIGESVDRNFPKIIEALSVDGASGQHIESSNIDPSSGKSWVSPAERYAVVPDETG		120 nM	
CRY2: recombinant full-length Arabidopsis cryptochrome 2 (protein, left off: His10, N-terminal, cleaved | Twin-Strep, N-terminal, cleaved) MKMDKKTIVWFRRDLRIEDNPALAAAAHEGSVFPVFIWCPEEEGQFYPGRASRWWMKQSLAHLSQSLKALGSDLTLIKTHNTISAILDCIRVTGATKVVFNHLYDPVSLVRDHTVKEKLVERGISVQSYNGDLLYEPWEIYCEKGKPFTSFNSYWKKCLDMSIESVMLPPPWRLMPITAAAEAIWACSIEELGLENEAEKPSNALLTRAWSPGWSNADKLLNEFIEKQLIDYAKNSKKVVGNSTSLLSPYLHFGEISVRHVFQCARMKQIIWARDKNSEGEESADLFLRGIGLREYSRYICFNFPFTHEQSLLSHLRFFPWDADVDKFKAWRQGRTGYPLVDAGMRELWATGWMHNRIRVIVSSFAVKFLLLPWKWGMKYFWDTLLDADLECDILGWQYISGSIPDGHELDRLDNPALQGAKYDPEGEYIRQWLPELARLPTEWIHHPWDAPLTVLKASGVELGTNYAKPIVDIDTARELLAKAISRTREAQIMIGAAPDEIVADSFEALGANTIKEPGLCPSVSSNDQQVPSAVRYNGSKRVKPEEEEERDMKKSRGFDERELFSTAESSSSSSVFFVSQSCSLASEGKNLEGIQDSSDQITTSLGKNGCK			No binding was observed
